Assay results taken from patent publication US20250163162A1.

Biological target: IL10 receptor (IL10R) (human) (UniProt Q13651)
Assay: cell-based or functional assay

IL10 receptor (IL10R) (human), sequence (Q13651 22-578, chain 1 of 2): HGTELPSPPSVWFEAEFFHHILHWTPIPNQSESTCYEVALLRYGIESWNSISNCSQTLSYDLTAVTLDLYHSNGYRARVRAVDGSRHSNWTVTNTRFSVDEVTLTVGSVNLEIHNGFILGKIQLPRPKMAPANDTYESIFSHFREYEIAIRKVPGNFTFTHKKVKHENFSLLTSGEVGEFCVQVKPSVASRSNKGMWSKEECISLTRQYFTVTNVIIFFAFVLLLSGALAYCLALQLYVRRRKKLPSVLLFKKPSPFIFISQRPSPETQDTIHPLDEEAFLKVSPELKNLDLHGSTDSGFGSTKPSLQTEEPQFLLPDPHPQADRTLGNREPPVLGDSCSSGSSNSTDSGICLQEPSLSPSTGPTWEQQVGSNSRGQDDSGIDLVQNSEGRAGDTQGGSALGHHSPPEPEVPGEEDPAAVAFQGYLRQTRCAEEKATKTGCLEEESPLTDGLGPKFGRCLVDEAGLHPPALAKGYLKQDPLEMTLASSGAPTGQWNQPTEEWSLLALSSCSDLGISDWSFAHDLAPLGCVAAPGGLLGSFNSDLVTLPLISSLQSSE
IL10 receptor (IL10R) (human), sequence (Q08334 20-325, chain 2 of 2, further chain): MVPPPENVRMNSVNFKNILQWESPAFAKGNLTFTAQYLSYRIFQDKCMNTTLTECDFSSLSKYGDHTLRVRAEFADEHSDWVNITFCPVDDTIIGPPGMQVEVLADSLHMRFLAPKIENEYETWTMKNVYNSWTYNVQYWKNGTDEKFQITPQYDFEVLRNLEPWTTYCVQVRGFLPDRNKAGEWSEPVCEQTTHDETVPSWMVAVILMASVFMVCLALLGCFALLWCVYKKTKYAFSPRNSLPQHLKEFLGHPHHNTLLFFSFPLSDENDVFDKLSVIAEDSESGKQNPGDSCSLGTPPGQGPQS

pSTAT3 MFI, B cells, 0.0001 nM (unstimulated 1193.5): 1160 MFI | pSTAT3 MFI, B cells, 0.001 nM (unstimulated 1193.5): 1140 MFI | pSTAT3 MFI, B cells, 0.01 nM (unstimulated 1193.5): 1220 MFI | pSTAT3 MFI, B cells, 0.1 nM (unstimulated 1193.5): 1780 MFI | pSTAT3 MFI, B cells, 1 nM (unstimulated 1193.5): 3950 MFI | pSTAT3 MFI, B cells, 10 nM (unstimulated 1193.5): 3930 MFI | pSTAT3 MFI, B cells, 100 nM (unstimulated 1045): 2400 MFI | pSTAT3 MFI, B cells, 100 nM (unstimulated 1193.5): 2620 MFI | pSTAT3 MFI, CD4+ T cells, 100 nM (unstimulated 1778): 9660 MFI | pSTAT3 MFI, CD4 T cells, 0.0001 nM (unstimulated 1887): 1970 MFI | pSTAT3 MFI, CD4 T cells, 0.001 nM (unstimulated 1887): 1880 MFI | pSTAT3 MFI, CD4 T cells, 0.01 nM (unstimulated 1887): 2220 MFI | pSTAT3 MFI, CD4 T cells, 0.1 nM (unstimulated 1887): 5170 MFI | pSTAT3 MFI, CD4 T cells, 1 nM (unstimulated 1887): 10700 MFI | pSTAT3 MFI, CD4 T cells, 10 nM (unstimulated 1887): 10800 MFI | pSTAT3 MFI, CD4 T cells, 100 nM (unstimulated 1887): 9560 MFI | pSTAT3 MFI, CD8+ T cells, 100 nM (unstimulated 1288): 8810 MFI | pSTAT3 MFI, CD8 T cells, 0.0001 nM (unstimulated 1446): 1700 MFI | pSTAT3 MFI, CD8 T cells, 0.001 nM (unstimulated 1446): 1430 MFI | pSTAT3 MFI, CD8 T cells, 0.01 nM (unstimulated 1446): 1720 MFI | pSTAT3 MFI, CD8 T cells, 0.1 nM (unstimulated 1446): 4300 MFI | pSTAT3 MFI, CD8 T cells, 1 nM (unstimulated 1446): 8890 MFI | pSTAT3 MFI, CD8 T cells, 10 nM (unstimulated 1446): 9890 MFI | pSTAT3 MFI, CD8 T cells, 100 nM (unstimulated 1446): 9010 MFI | pSTAT3 MFI, Monocytes, 0.0001 nM (unstimulated 2116): 2050 MFI | pSTAT3 MFI, Monocytes, 0.001 nM (unstimulated 2116): 2140 MFI | pSTAT3 MFI, Monocytes, 0.01 nM (unstimulated 2116): 2840 MFI | pSTAT3 MFI, Monocytes, 0.1 nM (unstimulated 2116): 9550 MFI | pSTAT3 MFI, Monocytes, 1 nM (unstimulated 2116): 28900 MFI | pSTAT3 MFI, Monocytes, 10 nM (unstimulated 2116): 30900 MFI | pSTAT3 MFI, Monocytes, 100 nM (unstimulated 1787): 27100 MFI | pSTAT3 MFI, Monocytes, 100 nM (unstimulated 2116): 26600 MFI | pSTAT3 MFI, NK cells, 0.0001 nM (unstimulated 1315): 1310 MFI | pSTAT3 MFI, NK cells, 0.001 nM (unstimulated 1315): 1270 MFI | pSTAT3 MFI, NK cells, 0.01 nM (unstimulated 1315): 1380 MFI | pSTAT3 MFI, NK cells, 0.1 nM (unstimulated 1315): 2280 MFI | pSTAT3 MFI, NK cells, 1 nM (unstimulated 1315): 4620 MFI | pSTAT3 MFI, NK cells, 10 nM (unstimulated 1315): 5700 MFI | pSTAT3 MFI, NK cells, 100 nM (unstimulated 1149): 4380 MFI | pSTAT3 MFI, NK cells, 100 nM (unstimulated 1315): 4790 MFI
Substance: wild-type human IL10 (wt hIL10) (from UniProt P22301 19-178) (ligand)
